In patent US20180086841A1 (Merck Sharp & Dohme, published 2018):

Legend:
Experiment in all cases: flow cytometry on CHO-K1 transfectants;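 note: Anti-hCD27 antibodies tested on transiently transfected CHO-K1 cells bearing hCD27 alanine mutants, 30 min at 4 °C primary incubation, FITC readout excluding debris, dead cells and doublets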
P8A = target: T1, P8A
T1 construct: also called hCD27 P8A
T1 receptor chain: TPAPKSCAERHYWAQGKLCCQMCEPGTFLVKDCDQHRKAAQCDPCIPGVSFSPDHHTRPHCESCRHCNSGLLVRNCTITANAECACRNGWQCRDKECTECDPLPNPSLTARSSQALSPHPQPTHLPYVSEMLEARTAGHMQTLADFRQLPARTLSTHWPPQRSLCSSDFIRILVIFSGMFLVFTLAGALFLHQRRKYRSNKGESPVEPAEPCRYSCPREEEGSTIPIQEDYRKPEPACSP
Protocol: (§1) The hCD27 variants that were tested are listed. Amino acids correspond to the UniProt P26842-1 sequence. Amino acids 1-20 constitute the signal peptide. Binding is expressed as the geometric mean of the FITC signal, relative to antibody binding to hCD27, which was set at 100%.
(§2) The ability of several anti-hCD27 antibodies to bind to a series of hCD27 alanine mutants was determined using CHO-K1 cells, transiently transfected pCI-neo empty vector, pCI-neo.hCD27 and several pCI-neo.CD27Ala mutant constructs.
(§3) Detached cells were transferred to 96 wells round-bottomed well plates at approximately 1.2×10⁵ cells/well. After spinning down the cells, discarding the supernatants and re-suspending the cells in the residual volume, the primary antibodies were added and incubated for 30 minutes at 4° C. Cells were washed three times with DPBS/BSA 1%, followed by centrifugation, discarding of the supernatants and re-suspension in the residual volume. […] After washing once, antibody binding was detected using the HTS plate reader (FACS Canto II) and FlowJo software for data analysis. Debris, dead cells and doublets were excluded from the analysis. Binding was expressed as the geometric mean of the FITC signal, relative to antibody binding to hCD27, which was set at 100%.

G89A = target: T2, G89A
T2 construct: also called hCD27 G89A
T2 receptor chain: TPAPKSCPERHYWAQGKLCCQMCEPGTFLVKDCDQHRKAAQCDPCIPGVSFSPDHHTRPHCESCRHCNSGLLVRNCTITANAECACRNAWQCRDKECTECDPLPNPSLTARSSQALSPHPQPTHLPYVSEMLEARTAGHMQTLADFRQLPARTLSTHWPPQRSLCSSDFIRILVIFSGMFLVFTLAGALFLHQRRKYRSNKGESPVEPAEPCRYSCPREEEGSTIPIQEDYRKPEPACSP
Protocol: as §1, §2, §3

D32A = target: T3, D32A
T3 construct: also called hCD27 D32A
T3 receptor chain: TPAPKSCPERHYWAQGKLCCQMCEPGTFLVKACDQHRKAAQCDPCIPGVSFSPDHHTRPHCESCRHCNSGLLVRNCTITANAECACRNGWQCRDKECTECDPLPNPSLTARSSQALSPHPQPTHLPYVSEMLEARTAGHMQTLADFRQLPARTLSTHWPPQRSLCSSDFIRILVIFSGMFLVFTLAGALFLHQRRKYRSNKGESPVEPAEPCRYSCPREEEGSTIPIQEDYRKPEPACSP
Protocol: as §1, §2, §3

K17A = target: T4, K17A
T4 construct: also called hCD27 K17A
T4 receptor chain: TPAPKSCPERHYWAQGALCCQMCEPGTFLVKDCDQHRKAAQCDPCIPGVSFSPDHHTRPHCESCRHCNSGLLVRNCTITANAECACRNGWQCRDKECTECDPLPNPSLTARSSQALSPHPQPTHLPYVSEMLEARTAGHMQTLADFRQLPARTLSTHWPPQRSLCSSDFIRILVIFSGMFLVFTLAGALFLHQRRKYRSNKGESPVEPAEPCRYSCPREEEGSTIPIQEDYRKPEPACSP
Protocol: as §1, §2, §3

P44A = target: T5, P44A
T5 construct: also called hCD27 P44A
T5 receptor chain: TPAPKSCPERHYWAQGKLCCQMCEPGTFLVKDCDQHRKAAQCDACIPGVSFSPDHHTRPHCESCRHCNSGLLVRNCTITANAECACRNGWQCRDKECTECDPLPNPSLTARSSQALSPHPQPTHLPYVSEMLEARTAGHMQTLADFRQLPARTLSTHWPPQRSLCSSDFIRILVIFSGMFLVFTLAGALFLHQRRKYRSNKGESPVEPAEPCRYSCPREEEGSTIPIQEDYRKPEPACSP
Protocol: as §1, §2, §3

V49A = target: T6, V49A
T6 construct: also called hCD27 V49A
T6 receptor chain: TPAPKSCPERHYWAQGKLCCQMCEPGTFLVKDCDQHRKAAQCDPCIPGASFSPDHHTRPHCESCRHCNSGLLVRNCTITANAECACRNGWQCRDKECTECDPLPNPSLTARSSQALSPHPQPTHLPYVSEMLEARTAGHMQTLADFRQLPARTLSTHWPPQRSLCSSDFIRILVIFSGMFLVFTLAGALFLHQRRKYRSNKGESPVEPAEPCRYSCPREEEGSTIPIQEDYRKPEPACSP
Protocol: as §1, §2, §3

G16A = target: T7, G16A
T7 construct: also called hCD27 G16A
T7 receptor chain: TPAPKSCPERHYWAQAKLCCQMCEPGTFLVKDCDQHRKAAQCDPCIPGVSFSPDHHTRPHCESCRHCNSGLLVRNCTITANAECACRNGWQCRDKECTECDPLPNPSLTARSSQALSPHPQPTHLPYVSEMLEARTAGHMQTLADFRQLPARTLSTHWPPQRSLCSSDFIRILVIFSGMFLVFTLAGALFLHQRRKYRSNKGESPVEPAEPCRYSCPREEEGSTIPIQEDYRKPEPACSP
Protocol: as §1, §2, §3

E9A = target: T8, E9A
T8 construct: also called hCD27 E9A
T8 receptor chain: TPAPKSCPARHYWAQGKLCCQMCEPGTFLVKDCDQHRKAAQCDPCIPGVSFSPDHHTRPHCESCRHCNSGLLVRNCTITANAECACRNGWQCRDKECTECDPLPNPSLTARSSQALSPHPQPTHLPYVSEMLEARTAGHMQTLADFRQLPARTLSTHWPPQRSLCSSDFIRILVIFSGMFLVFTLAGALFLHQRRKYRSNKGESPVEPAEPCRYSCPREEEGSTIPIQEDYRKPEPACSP
Protocol: as §1, §2, §3

S63A = target: T9, S63A
T9 construct: also called hCD27 S63A
T9 receptor chain: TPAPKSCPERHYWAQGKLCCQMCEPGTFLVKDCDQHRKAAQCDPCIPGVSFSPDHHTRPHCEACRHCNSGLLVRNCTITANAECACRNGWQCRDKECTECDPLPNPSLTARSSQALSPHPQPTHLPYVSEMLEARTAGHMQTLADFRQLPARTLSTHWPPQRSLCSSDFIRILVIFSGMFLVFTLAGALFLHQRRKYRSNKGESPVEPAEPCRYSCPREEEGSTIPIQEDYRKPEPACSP
Protocol: as §1, §2, §3

Q91A = target: T10, Q91A
T10 construct: also called hCD27 Q91A
T10 receptor chain: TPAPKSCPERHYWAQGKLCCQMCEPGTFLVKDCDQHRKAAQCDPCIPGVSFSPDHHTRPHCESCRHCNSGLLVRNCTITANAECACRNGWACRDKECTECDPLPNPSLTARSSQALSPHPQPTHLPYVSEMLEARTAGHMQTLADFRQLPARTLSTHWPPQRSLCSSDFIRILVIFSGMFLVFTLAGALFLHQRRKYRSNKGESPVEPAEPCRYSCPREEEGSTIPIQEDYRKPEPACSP
Protocol: as §1, §2, §3

binding, WT hCD27 = 100 (GM FITC) (P8A): 63%
binding, WT hCD27 = 100 (GM FITC) (G89A): 97.4%
binding, WT hCD27 = 100 (GM FITC) (D32A): 50.6%
binding, WT hCD27 = 100 (GM FITC) (K17A): 120%
binding, WT hCD27 = 100 (GM FITC) (P44A): 68.7%
binding, WT hCD27 = 100 (GM FITC) (V49A): 69%
binding, WT hCD27 = 100 (GM FITC) (G16A): 141%
binding, WT hCD27 = 100 (GM FITC) (E9A): 58.5%
binding, WT hCD27 = 100 (GM FITC) (S63A): 104%
binding, WT hCD27 = 100 (GM FITC) (Q91A): 136%
B1: hCD27.15-6B (antibody, human IgG4 S228P, kappa, V domains shown)
VH: QVQLVQSGAEVKKPGASVKVSCKASGFIIKATYMHWVRQAPGQRLEWMGRIDPANGETKYDPKFQVRVTITADTSASTAYMELSSLRSEDTAVYYCARYAWYFDVWGQGTLVTVSS
VL: DIQMTQSPSSLSASVGDRVTITCRASENIYSFLAWYQQKPGKAPKLLIYHAKTLAEGVTSRFSGSGSGTDFTLTISSLQPEDSATYYCQHYYGSPLTFGQGTRLEIKR
notes: also called hCD27.15 (humanized 6B); humanized hCD27.15 (human IgG4, Clone 6B)
